Assay results published in a protein production outcome set (Wang et al. 2014).

Assay: label from the status in PepcDB records
With “MAIDVCCSEASGSGISPRISFSYDLDSTDDGEVRLDSTLLDSGSEFDFCFGSSCSVQEVSPADELFSEGKILPVQIKKEESLPQTVTFRVPRSASLSSSSSSSSSSSSSSRAPEKKMRLKELLLNPESDFEDKPRGLFLQFKRSISLNYDKSRNSKGLIRSFHFLSRSNSTPNPNLDLLPKETHHPHKTHNLPKHKPPLRRSSSLSSSSVPFYSKKPLGRNSFGNGNGGVRVSPVLNFPPPAFISNVADGFFSIGSLCNGKTNTKTKL” the protein production was “failed”.
For “MAIEPSLISSLTWFAHVARHRSFTKAASEMGVTRAALSQHVKGLEKQLQVRLLNRTTRNMSLTEEGQRLLDTLHPSLSNIEQTLNSLNDLHIEPAGLIRISVSRTAARLLIEPHLGEFLSRYPKIRLELIMDDGLTNIVAEGMDAGIRLGVSLDEHMVAIPITPNLTNAIVGSPDYFKRYGKPETPNDLEHHNCLAYRFTSSGTLDHWSLTSPDVDKHTVIFEPKGNAVFNDDYSMLQAAMQGVGLIKHIDLWVLKYLEEGKLERVFVDWCKPFPGFYLYIPSRENMPKKIRVLMDFLIEKRAEL”, the protein production was “failed”.
With “MAIGERIRFFRNLRGMTQKYLGTVVGFPENTADIRMAQYESGSRTPKADLTENLAGVLGVSPLALSVPDIDSYLGLMHTLFTLEDRYGLTIEKGENGVSMCVDPRKGKDAAELSEMLNAWAKQAEKYHNGDISRELEHHHHHH” the protein production was “not failed”.
In the case of “MAIHVGIIDQDPVRLVTPLLDHRTVSRHIIFIGDHTQTVIYQRLSDVLNKRNISTDFFEIPAGSNTSAIKSAIRELAETLKARGEEVKFNASCGLRHRLLSAYEVFRSYHWPIFVVEPNSDCLCWLYPEGNNDTQVQDRITIADYLTIFGARGEFNEHQLSPQLDQQLYQLGERWASNALELGPGLATLNYLATTCRKEQKLDVELSDKQQGYRELNLLLSDLVEAKIASYENGILTFINEEARRFANGEWLETLVHSTVKQIQDDMPTIQDRSLNVQVYRQLGEREVRNELDVATVVNNKLHIIECKTKGMRDDGDDTLYKLESLRDLLGGLQARAMLVSFRPLRHNDITRAEDLGLALIGPDELKDLKTHLTQWFKAAGGN”, the protein production was “not failed”.
For “MAIKITPDEFSLLIQRLNKKWRVFAPSAEFRGGRFSDTDNIIYQRISGWRDLIWHEKSHMSPNTIIAPITETLFYFDKDTIQIAETDTSPIIIFARACDINAMSRLDYMYLSNGNNSDYSYQLLREHIRFVLIECEKSFENCFCVSMGTNKTDCYSAAMRFSDEGALVSIRDPFIEAAIQGLGQEADYTPSFVSENRETVVTPDSVCRDPQKIRDILTRHPLWDAYDSRCISCGRCTTGCPTCTCYSVFDVAYDENPQRGERRRQWASCMVPGFSDMAGGHGFREKPGERLRYRALHKVNDYKARNGIEHMCVGCGRCDDRCPQYIKFSLIINKMTAAVRQALAEEA”, the protein production was “failed”.
With “MAIKSISSSLLTRVLSVYFLLTLIVTAIQIGAEYFDTKRVLIAELQNQQSTFNGSLTRSLWEFNSNQIDTIADGLISIPAIAGVLIRDDAGNILVQLGETTEMSDLPDDNSEGALLPERNGIFGYYDSLIFEFSGHSTKVGDVSLFSTRDIAIDRIKVSLGFIIGNAIIKSIFLIVLFTIAFNRMLNRPLSDLTQQIKGFRLDNLERSRIRLDDQHNNELVLVEQAYNQLLDNIEEYQSDLDRTQKKLKAANRQLDEQNAILEQEVARKTSSLSQVMLDLEQRKNELEMRQEKLEREVGQRRAIENTLRQSNQRLESSLNNLRETQQQLIESEKMASLGGLVAGITHDVNTPIGISVTASSYLREKLDTLDQSLLNKELTQTQLKKFIEEGRESLNLLDSNLHRASDLISSFKQVAVDQASDAIRDINLKSYIEDLVQSLQPHLKKTNHQVRLECADDIFIRCPAGALSQIFTNLILNSLRHAFDGISEGLMIISIRLDGETLQVHYSDNGNGLSEAQLKRLFDPFFTTKRDQGGSGLGTHIVRNLVTQTLSGEISAESEPGKGLSYFFSFSVQVLN” the protein production was “failed”.
With “MAILLALIPIMMIFICLFLFKQTSLRSSLIAYVVSVGIVLLSPMFQLGISETVHATIKGSLICFIVGYVLFFGIFLFHLMNKMGYIDQVARFLEEVTHDRLLQMLLMCFGICPLIESVSGFGIGFMVAAPIFLSLGYKPFQAVLLSFIGLLASSWGAMATGTIIGSQLINMPLTTLGTNTALLSIPMFAYFVILSLHVVGGWQAVIEKWKEGIGFFLLFSLGIYLSNAYVSVELAGILSSIVTITFGFLIIKLKGKSEQNLMSEHAAATEREVSIIKIISPYIFLTVCILLSRLVPALHDVFRSYAVLDLKSFSYKLEMLYSPGFWLGMTCLFTIIFFRIPSNIIKQSLSQTIKQWIPFAITTTMFIAISELMGASGMHSLLAKTAGETFGTFFVFVAPFIGGIGGFLTGSNAGSNAMFIKLQMQTAQNVALPWQYVTTLQNTASSVATIACPSRITLGAYLCNIPYRENELLKKTTLMIFGAVLLIVVEVIFWYMLRN” the protein production was “failed”.
